Target: fibrillar amyloid-beta (UniProt P05067)
Assay: SPR

Chain of UniProt P05067 (P05067 672-713): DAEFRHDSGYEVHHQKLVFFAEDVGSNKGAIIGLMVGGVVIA

Kd: 9 nM
Substance: Galectin-3 (from UniProt P17931 1-250) (natural protein)

Source: doi:10.1101/2025.03.17.643790
